Assay results from patent publication US20200157212A1 (Pfizer, published 2020).

T1: Human ROBO2 Ig 1,2 KSR mutant (human, UniProt Q7TPD3 31-220 (mouse entry), limits assumed)
T1 construct: recombinant protein; also called ROBO2-KSR mutant protein; Human ROBO2 Ig1-2 with the RSK mutated to KSR
T1 chain: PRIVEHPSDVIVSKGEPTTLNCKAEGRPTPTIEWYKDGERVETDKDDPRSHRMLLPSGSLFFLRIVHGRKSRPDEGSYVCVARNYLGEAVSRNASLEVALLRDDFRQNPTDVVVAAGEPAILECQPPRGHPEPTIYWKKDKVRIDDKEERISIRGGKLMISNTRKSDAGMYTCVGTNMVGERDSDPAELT

T2: Human ROBO1 Ig1-Ig2 (human, UniProt Q9Y6N7 68-257)
T2 construct: recombinant protein; also called ROBO1 Ig1-2; Human ROBO1 Ig 1,2
T2 sequence: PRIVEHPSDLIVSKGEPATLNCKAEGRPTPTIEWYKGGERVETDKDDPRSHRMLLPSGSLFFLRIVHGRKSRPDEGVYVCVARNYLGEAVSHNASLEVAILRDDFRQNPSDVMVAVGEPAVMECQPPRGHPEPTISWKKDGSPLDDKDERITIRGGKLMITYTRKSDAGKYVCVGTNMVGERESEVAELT

T3: Human ROBO2 KSR mutant overexpressed on HEK293 cells (human, UniProt Q9HCK4 22-1378)
T3 construct: R100K and K102R already in the entry
T3 sequence: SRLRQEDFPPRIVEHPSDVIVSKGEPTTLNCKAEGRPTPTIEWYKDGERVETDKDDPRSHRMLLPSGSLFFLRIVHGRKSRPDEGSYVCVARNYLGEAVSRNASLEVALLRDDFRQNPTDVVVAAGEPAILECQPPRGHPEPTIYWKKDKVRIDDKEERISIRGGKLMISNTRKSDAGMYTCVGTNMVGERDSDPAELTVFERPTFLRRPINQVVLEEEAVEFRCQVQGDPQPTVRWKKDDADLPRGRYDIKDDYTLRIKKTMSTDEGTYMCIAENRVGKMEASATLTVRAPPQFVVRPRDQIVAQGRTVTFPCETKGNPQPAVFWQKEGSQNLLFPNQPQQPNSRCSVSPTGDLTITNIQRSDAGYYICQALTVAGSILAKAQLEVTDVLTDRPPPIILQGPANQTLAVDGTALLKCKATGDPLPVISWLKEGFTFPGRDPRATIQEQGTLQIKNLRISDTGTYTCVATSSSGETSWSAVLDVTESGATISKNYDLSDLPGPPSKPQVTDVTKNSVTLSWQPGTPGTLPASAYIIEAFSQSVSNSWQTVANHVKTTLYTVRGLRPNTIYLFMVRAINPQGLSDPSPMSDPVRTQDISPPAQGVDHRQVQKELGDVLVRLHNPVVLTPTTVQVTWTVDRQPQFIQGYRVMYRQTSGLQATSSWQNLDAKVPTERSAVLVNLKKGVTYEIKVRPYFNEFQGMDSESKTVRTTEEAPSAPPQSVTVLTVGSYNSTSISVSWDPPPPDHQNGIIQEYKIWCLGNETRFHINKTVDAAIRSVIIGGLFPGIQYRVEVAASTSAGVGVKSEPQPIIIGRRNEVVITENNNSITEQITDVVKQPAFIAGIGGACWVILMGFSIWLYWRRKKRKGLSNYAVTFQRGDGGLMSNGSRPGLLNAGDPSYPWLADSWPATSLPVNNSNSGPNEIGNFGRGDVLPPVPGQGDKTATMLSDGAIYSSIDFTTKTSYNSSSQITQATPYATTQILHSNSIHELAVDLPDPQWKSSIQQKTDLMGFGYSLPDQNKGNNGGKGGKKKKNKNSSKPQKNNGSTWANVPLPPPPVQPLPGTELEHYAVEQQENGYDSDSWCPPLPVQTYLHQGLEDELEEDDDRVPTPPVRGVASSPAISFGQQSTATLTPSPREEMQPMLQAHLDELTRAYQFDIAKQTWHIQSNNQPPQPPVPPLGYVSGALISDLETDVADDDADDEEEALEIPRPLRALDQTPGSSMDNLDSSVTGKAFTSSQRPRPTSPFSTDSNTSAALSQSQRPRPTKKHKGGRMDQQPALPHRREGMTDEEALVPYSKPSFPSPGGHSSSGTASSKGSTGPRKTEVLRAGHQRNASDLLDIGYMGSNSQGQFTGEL

B1: Abcs35 (antibody, human IgG1, kappa)
heavy: EVQLVQSGAEVKKPGASVKVSCKASGYTFTGYYMHWVRQAPGQGLEWMGWINPKNGDTEFPQKFQGRVTMTRDTSITTAYMDLSRLRSDDTAVYYCARESGDDAFDIWGQGTMVTVSSASTKGPSVFPLAPSSKSTSGGTAALGCLVKDYFPEPVTVSWNSGALTSGVHTFPAVLQSSGLYSLSSVVTVPSSSLGTQTYICNVNHKPSNTKVDKKVEPKSCDKTHTCPPCPAPEAAGAPSVFLFPPKPKDTLMISRTPEVTCVVVDVSHEDPEVKFNWYVDGVEVHNAKTKPREEQYNSTYRVVSVLTVLHQDWLNGKEYKCKVSNKALPAPIEKTISKAKGQPREPQVYTLPPSREEMTKNQVSLTCLVKGFYPSDIAVEWESNGQPENNYKTTPPVLDSDGSFFLYSKLTVDKSRWQQGNVFSCSVMHEALHNHYTQKSLSLSPGK
light: DIVMTQSPSSLSASVGDRVTITCRASQSISSYLNWYQQKPGKAPKLLIYAASSLQSGVPSRFSGSGSGTDFTLTISSLQPEDFATYYCQQSVGLFFGGGTKVEIKRTVAAPSVFIFPPSDEQLKSGTASVVCLLNNFYPREAKVQWKVDNALQSGNSQESVTEQDSKDSTYSLSSTLTLSKADYEKHKVYACEVTHQGLSSPVTKSFNRGEC
notes: fully human IgG1; VH of Ab96 with VL of Ab123
B2: Abcs35-J (antibody, human IgG1, kappa)
heavy: EVQLVQSGAEVKKPGASVKVSCKASGYTFTGYYMHWVRQAPGQGLEWMGWINPKNGDTEFPQKFQGRVTMTRDTSITTAYMELSRLRSDDTAVYYCARESGDDAFDIWGQGTMVTVSSASTKGPSVFPLAPSSKSTSGGTAALGCLVKDYFPEPVTVSWNSGALTSGVHTFPAVLQSSGLYSLSSVVTVPSSSLGTQTYICNVNHKPSNTKVDKKVEPKSCDKTHTCPPCPAPEAAGAPSVFLFPPKPKDTLMISRTPEVTCVVVDVSHEDPEVKFNWYVDGVEVHNAKTKPREEQYNSTYRVVSVLTVLHQDWLNGKEYKCKVSNKALPAPIEKTISKAKGQPREPQVYTLPPSREEMTKNQVSLTCLVKGFYPSDIAVEWESNGQPENNYKTTPPVLDSDGSFFLYSKLTVDKSRWQQGNVFSCSVMHEALHNHYTQKSLSLSPGK
light: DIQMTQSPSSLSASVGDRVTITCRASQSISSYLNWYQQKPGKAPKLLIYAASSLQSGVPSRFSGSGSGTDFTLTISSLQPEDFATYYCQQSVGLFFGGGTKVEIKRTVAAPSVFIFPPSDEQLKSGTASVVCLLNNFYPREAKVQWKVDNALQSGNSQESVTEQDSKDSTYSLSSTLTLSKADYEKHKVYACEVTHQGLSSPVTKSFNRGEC
notes: germlined variant of Abcs35; also called ABCS-J

What was measured:
[1] = biological target: T1, Human ROBO2 Ig 1,2 KSR mutant; assay: Octet Red BLI, Abcs35 captured on AHC sensors, ROBO proteins in solution
Text: (§1) Octet Red AHC (Anti-Human IgG FC) Sensors were loaded with Abcs35. The loaded sensors were then exposed to Human ROBO2 Ig1-2, Rat ROBO2 Ig 1-2, Human ROBO2 Ig1-2 with the RSK mutated to KSR as in ROBO1, or ROBO1 Ig1-2 then the sensors were moved to PBS only, lacking any ROBO1 or 2 proteins. The arrows indicate curves for each of the ROBO proteins tested.
(§2) Based upon the crystal structure described above, the following experiments were done to confirm the epitope specificity of 93H2 and/or affinity matured clones Abcs35. Using Octet Red, epitope specificity was confirmed biochemically. Abcs35, at 10 μg/ml, was captured on AHC sensors for 60 seconds. Recombinant human ROBO2 Ig1-Ig2, rat […], human ROBO2 containing the ROBO1 KSR sequence (ROBO2-KSR mutant), and human ROBO1 Ig1-Ig2, prepared at 100 nM, were used to interact with captured Abcs35. Association time was 100 seconds then dissociation was followed for 20 seconds. Abcs35 specifically bound human and rat ROBO2 but not human ROBO1 or the ROBO2-KSR mutant protein (FIG. 2).

Human ROBO1 Ig1-Ig2 = biological target: T2, Human ROBO1 Ig1-Ig2; assay: as above
Text: as §1, §2

[2] = biological target: T3, Human ROBO2 KSR mutant overexpressed on …; assay: flow cytometry on HEK293 cells overexpressing the ROBO2-KSR mutant
Method: The binding profile of Abcs35-J compared to Abcs35 was determined for human ROBO2, orthologs from cynomolgus monkey and rat, human ROBO1 and specificity for the RSK epitope from ROBO2 but not KSR from ROBO1. Binding was assessed by flow cytometry as described in Examples 2 (homolog specificity), Example 3 (ortholog reactivity) and Example 5 (RSK vs KSR epitope specificity). […] Binding of the antibodies was detected using a secondary fluorochrome conjugated anti-human IgG F(ab′)₂ antibody and samples analyzed on a Fortessa cytometer (BD Biosciences). […] FIGS. 16A-16F depicts binding profiles of Abcs35 (black circles) or Abcs35-J (grey squares) to human ROBO2 (FIG. 16A), cynomolgus monkey ROBO2 (FIG. 16B), rat ROBO2 (FIG. 16C), human ROBO1 (FIG. 16D), ROBO1 containing the ROBO2 RSK epitope (FIG. 16E) or ROBO2 containing the ROBO1 KSR epitope (FIG. 16 F).

Binder | binding result [1] | binding result (Human ROBO1 Ig1-Ig2) | binding result [2]
B1 | no binding | no binding | –
B2 | – | – | no binding (tested: last point just below 10^1 nM)
